The subject of series [1] is NC(=O)C1=CN([C@@H]2O[C@H](COP(=O)(O)OP(=O)(O)OC[C@H]3O[C@@H](n4cnc5c(N)ncnc54)[C@H](OP(=O)(O)O)[C@@H]3O)[C@@H](O)[C@H]2O)C=CC1. Kind of series: purified protein. As to conditions: FAD catalytic domain; binding site shared with CH2-THF, next to FAD; 46.0 °C.
Series [2] relates to Nc1nc2c(c(=O)[nH]1)N1CN(c3ccc(C(=O)N[C@@H](CCC(=O)O)C(=O)O)cc3)CC1CN2. The experiment in a line: purified protein. As to conditions: FAD catalytic domain; binding site shared with NAD(P)H, next to FAD; 46.0 °C.

Consider “5,10-methylenetetrahydrofolate reductase (MTHFR) (Homo sapiens)”, for which the Km in series [1] stood at 23.5 µM; in series [2], 22.4 µM.

The values are drawn from article PMC5995969, “Structural basis for the regulation of human 5,10-methylenetetrahydrofolate reductase by phosphorylation and S-adenosylmethionine inhibition” (Nature Communications, 2018).
